± gives the standard error. This sample holds only a part of the variants without activity.
B1: glmS ribozyme (parent)
chain: AUAAAAGCGCCAGAACUACAGAAAUGUAGUUGACGAGGAGGAGGUUUAUCGAAUUUUCGGCGGAUGCCUCCAAA

Assays:
Details in all cases: with glucosamine-6-phosphate
glucosamine-6-phosphate [1] = variants of: B1; assay: self-cleavage kobs at 40 uM GlcN6P; higher = faster cleavage; RNA array
Procedure, shortened: (§1)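 Glucosamine-6-phosphate in HEPES/KCl/Mg(OAc)2 buffer, at 40 μM to 10 mM, was flowed over barcoded ribozyme variants transcribed in situ by E. coli RNA polymerase on sequenced MiSeq chips. Tracking was through a hybridised Cy3 probe at 37 °C. kobs, kcat and KM came from exponential decay fits and weighted Michaelis–Menten fits of normalised per-tile medians.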

glucosamine-6-phosphate [2] = variants of: B1; assay: self-cleavage kobs at 640 uM GlcN6P; higher = faster cleavage; RNA array
Procedure, shortened: as §1

glucosamine-6-phosphate [3] = variants of: B1; assay: self-cleavage kobs at 2500 uM GlcN6P; higher = faster cleavage; RNA array
Procedure, shortened: as §1

glucosamine-6-phosphate [4] = variants of: B1; assay: self-cleavage kobs at 160 uM GlcN6P; higher = faster cleavage; RNA array
Procedure, shortened: as §1

glucosamine-6-phosphate [5] = variants of: B1; assay: self-cleavage kobs at 10000 uM GlcN6P; higher = faster cleavage; RNA array
Procedure, shortened: as §1

| Variant | self-cleavage kobs at 40 uM GlcN6P (glucosamine-6-phosphate [1]) | self-cleavage kobs at 640 uM GlcN6P (glucosamine-6-phosphate [2]) | self-cleavage kobs at 2500 uM GlcN6P (glucosamine-6-phosphate [3]) | self-cleavage kobs at 160 uM GlcN6P (glucosamine-6-phosphate [4]) | self-cleavage kobs at 10000 uM GlcN6P (glucosamine-6-phosphate [5]) |
| --- | --- | --- | --- | --- | --- |
| A6U A42G G43C | < 1e-05 s⁻¹ | – | – | – | – |
| G9U C10U A36U G51A C70G | < 1e-05 s⁻¹ | – | – | – | – |
| A12U C16A A53U | 6.29e-05 ± 1.7e-05 s⁻¹ | 0.000278 ± 8.9e-05 s⁻¹ | 0.00138 ± 0.00059 s⁻¹ | – | – |
| G7U C11U | < 1e-05 s⁻¹ | < 1e-05 s⁻¹ | < 1e-05 s⁻¹ | < 1e-05 s⁻¹ | < 1e-05 s⁻¹ |
| C11U U49C | < 1e-05 s⁻¹ | < 1e-05 s⁻¹ | < 1e-05 s⁻¹ | < 1e-05 s⁻¹ | – |
| G9C A39G | < 1e-05 s⁻¹ | – | < 1e-05 s⁻¹ | – | < 1e-05 s⁻¹ |
| G9U G35C G43A | < 1e-05 s⁻¹ | < 1e-05 s⁻¹ | – | < 1e-05 s⁻¹ | – |
| A15C A39G U56G | 4.71e-05 ± 1.6e-05 s⁻¹ | – | – | – | 0.00218 ± 0.00029 s⁻¹ |
| C50G G62A C70U | 9.58e-05 ± 2.3e-05 s⁻¹ | 0.000184 ± 4.7e-05 s⁻¹ | 0.000549 ± 0.00012 s⁻¹ | – | 0.000104 ± 1.6e-05 s⁻¹ |
| G41C C58G | < 1e-05 s⁻¹ | < 1e-05 s⁻¹ | – | < 1e-05 s⁻¹ | < 1e-05 s⁻¹ |
| G7U U45G C61A | < 1e-05 s⁻¹ | – | – | – | < 1e-05 s⁻¹ |
| G32C G35C | < 1e-05 s⁻¹ | < 1e-05 s⁻¹ | – | – | < 1e-05 s⁻¹ |
| U54C C70A | 3e-05 ± 1.2e-05 s⁻¹ | 0.000124 ± 2.4e-05 s⁻¹ | 0.000512 ± 0.00011 s⁻¹ | 5.86e-05 ± 2.8e-05 s⁻¹ | 0.000206 ± 2.9e-05 s⁻¹ |
| A42U C50U | < 1e-05 s⁻¹ | < 1e-05 s⁻¹ | < 1e-05 s⁻¹ | < 1e-05 s⁻¹ | < 1e-05 s⁻¹ |
| U56A C71U | 0.000282 ± 3.8e-05 s⁻¹ | 0.00243 ± 0.00036 s⁻¹ | 0.0201 ± 0.0072 s⁻¹ | 0.000738 ± 0.00012 s⁻¹ | 0.018 ± 0.0044 s⁻¹ |
| U30G G35A | < 1e-05 s⁻¹ | – | < 1e-05 s⁻¹ | – | < 1e-05 s⁻¹ |
| G44A C50G U55A | < 1e-05 s⁻¹ | < 1e-05 s⁻¹ | < 1e-05 s⁻¹ | – | – |
| A52C C61U | < 1e-05 s⁻¹ | < 1e-05 s⁻¹ | < 1e-05 s⁻¹ | – | < 1e-05 s⁻¹ |
| U54A G66A C67G | 5.57e-05 ± 1.5e-05 s⁻¹ | – | 0.000119 ± 4.7e-05 s⁻¹ | – | 0.000693 ± 0.00017 s⁻¹ |

From the supplement of paper PMC7125110
